The values below come from article PMC4957052 (The Journal of Biological Chemistry, 2016).

The target of this assay is T1, M. musculus αT-catenin (wild type, full length) (M. musculus, UniProt Q65CL1 1-895).
T1 construct: Cloned into pGEX-TEV; cleaved from GST with tobacco etch virus protease; also called αT (testes)-catenin; WT αT-catenin; source: E. coli BL21(DE3), purified (glutathione-agarose, TEV cleavage, Mono Q, S200 gel filtration)
T1 sequence (looked up): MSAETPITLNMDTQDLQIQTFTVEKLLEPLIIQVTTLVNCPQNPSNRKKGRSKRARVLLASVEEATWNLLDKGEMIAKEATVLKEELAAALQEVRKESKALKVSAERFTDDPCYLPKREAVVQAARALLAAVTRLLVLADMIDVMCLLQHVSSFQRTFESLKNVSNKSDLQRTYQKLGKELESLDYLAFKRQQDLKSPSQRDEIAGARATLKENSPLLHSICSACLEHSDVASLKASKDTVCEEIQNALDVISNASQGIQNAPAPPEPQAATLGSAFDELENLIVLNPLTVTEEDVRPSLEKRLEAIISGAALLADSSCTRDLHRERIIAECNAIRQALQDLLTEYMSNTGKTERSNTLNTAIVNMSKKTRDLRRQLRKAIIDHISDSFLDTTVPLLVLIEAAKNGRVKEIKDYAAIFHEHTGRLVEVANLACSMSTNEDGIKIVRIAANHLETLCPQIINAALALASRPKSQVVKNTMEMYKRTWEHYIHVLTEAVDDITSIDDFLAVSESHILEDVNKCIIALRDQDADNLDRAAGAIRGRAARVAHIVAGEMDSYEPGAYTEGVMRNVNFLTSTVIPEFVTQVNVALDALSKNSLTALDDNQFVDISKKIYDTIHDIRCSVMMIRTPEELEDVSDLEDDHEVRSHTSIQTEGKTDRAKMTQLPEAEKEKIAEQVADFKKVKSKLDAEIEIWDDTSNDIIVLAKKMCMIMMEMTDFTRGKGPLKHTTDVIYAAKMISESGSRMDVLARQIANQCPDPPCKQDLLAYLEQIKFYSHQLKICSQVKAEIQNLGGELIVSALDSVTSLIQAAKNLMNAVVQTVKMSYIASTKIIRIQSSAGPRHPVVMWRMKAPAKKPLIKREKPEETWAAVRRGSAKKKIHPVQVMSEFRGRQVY
Put plainly: pull-down; 1-15 μg αT-catenin or V94D added to 15 μg GST-β-catenin on glutathione-agarose in 20 mM Tris pH 8, 150 mM NaCl, 5 mM DTT; >2 h at 4 °C (legend: 1 h at room temperature); five washes in PBS + 0.05% Tween 20, 5 mM DTT; Coomassie. The note with it: both partners purified.

B1: GST-tagged full-length β-catenin (natural protein, mouse, UniProt Q02248 1-781, looked up)
chain: MATQADLMELDMAMEPDRKAAVSHWQQQSYLDSGIHSGATTTAPSLSGKGNPEEEDVDTSQVLYEWEQGFSQSFTQEQVADIDGQYAMTRAQRVRAAMFPETLDEGMQIPSTQFDAAHPTNVQRLAEPSQMLKHAVVNLINYQDDAELATRAIPELTKLLNDEDQVVVNKAAVMVHQLSKKEASRHAIMRSPQMVSAIVRTMQNTNDVETARCTAGTLHNLSHHREGLLAIFKSGGIPALVKMLGSPVDSVLFYAITTLHNLLLHQEGAKMAVRLAGGLQKMVALLNKTNVKFLAITTDCLQILAYGNQESKLIILASGGPQALVNIMRTYTYEKLLWTTSRVLKVLSVCSSNKPAIVEAGGMQALGLHLTDPSQRLVQNCLWTLRNLSDAATKQEGMEGLLGTLVQLLGSDDINVVTCAAGILSNLTCNNYKNKMMVCQVGGIEALVRTVLRAGDREDITEPAICALRHLTSRHQEAEMAQNAVRLHYGLPVVVKLLHPPSHWPLIKATVGLIRNLALCPANHAPLREQGAIPRLVQLLVRAHQDTQRRTSMGGTQQQFVEGVRMEEIVEGCTGALHILARDVHNRIVIRGLNTIPLFVQLLYSPIENIQRVAAGVLCELAQDKEAAEAIEAEGATAPLTELLHSRNEGVATYAAAVLFRMSEDKPQDYKKRLSVELTSSLFRTEPMAWNETADLGLDIGAQGEALGYRQDDPSYRSFHSGGYGQDALGMDPMMEHEMGGHHPGADYPVDGLPDLGHAQDLMDGLPPGDSNQLAWFDTDL
notes: β-catenin, full length; also called GST-β-catenin; GST-tagged β-catenin
For B1, the binding result is on record as “binds”.
